According to publication PMC3321182 (The EMBO Journal, 2012):

Biological target: T1, N-terminal autoproteolysis product of the crystallized HormR-GAIN fragment of rat CL1 (CIRL/Latrophilin 1) (rat, UniProt O88917 460-837)
T1 sequence (looked up): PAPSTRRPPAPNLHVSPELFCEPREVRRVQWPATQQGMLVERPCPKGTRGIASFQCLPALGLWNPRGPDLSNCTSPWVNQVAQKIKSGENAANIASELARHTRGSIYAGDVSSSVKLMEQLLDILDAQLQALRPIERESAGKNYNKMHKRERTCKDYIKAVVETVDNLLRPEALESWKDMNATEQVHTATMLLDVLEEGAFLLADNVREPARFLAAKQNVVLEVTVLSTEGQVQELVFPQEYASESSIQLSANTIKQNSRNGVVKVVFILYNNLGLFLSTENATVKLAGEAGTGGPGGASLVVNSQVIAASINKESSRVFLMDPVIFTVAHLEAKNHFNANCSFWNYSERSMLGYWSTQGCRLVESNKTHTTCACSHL
Assay: crystal structure

TNFAVLMAHREI (peptide, UniProt O88917 838-849, looked up)
binding result: binds
